From patent US20210347868A1 (published 2021)
Where two headings read alike, the source gives them in different places.

B1: Asyn-338.1 (antibody, V domains shown)
VH: QVQLVESGGDIVQPGGSLKLSCAASGFTFKSYWMHWVRQVPGKGLFWVSRINTFGNKTSYADSVRGRFSISRDNTKSILYLQMNSLKAEDTAVYYCARSTLGSFDYWGQGTLVTVSS
VL: AIQLTQSPDSLAVSLGERATINCKASQSLLYSSNNRNYLAWYQQKPGQPPKALIYWASTRESGVPDRFSGSGSGTDFTLTISSLQAEDVAVYYCHQYYTTHSFGQGTKLEIK
B2: Asyn-336.1 (antibody, V domains shown)
VH: EVQLVQSGGTLVQPGGSLRLSCAASGFTFSTYAISWVRQAPGRGLEWVSFITGDGSRILYADSVRGRFSISRDNSKNTLYLQMNSLRTDDTAMYYCVFNHYWGQGTLVTVSS
VL: B1 VL
B3: Asyn-323.1 (antibody, V domains shown)
VH: EVQLLESGGGLVQPGGSLKLSCAASGFTFSASAMHWVRQTSDKRLEWVGRIRNKANNYATAYAASVKGRFTISRDDSKNTAYLQMNSLKTEDTAVYYCTRHLSLGGNSVDYWGQGTPVTVSS
VL: DVVMTQSPLSSPVTLGQPASISCRASQSPVHSDGNTYLSWLQQRPGQPPRLLIYTISNRFPGVPDRFSGSGAGTDFTLRISRVEAEDVGVYYCMQGTQFPYTFGQGTKLEIK

Assays:
full-length synuclein [1] = test: ITC
full-length synuclein [2] = test: ITC; remark: listed apart in the source

Kd (full-length synuclein [1]) [nM]	Kd (full-length synuclein [2]) [nM]	Binder
300		B1
1400		B2
	2800	B3
